Test results published in patent US7803351B2, “Blood brain barrier permeation peptides” (priority 2004, dated 2010).
Like-named read-outs stand apart in the source and are kept apart here. Numbered stars: 1 amine (or outer) side, 2 acyl side, 3 side chain; on linkers, the order of the positions; unused ones are H or OH. Square brackets hold non-standard residues; d marks the D form. Ends that are not written are not given here. * marks the point of attachment. Fluorescein(5-Mal) = O=C1OC2(c3ccc(O)cc3Oc3cc(O)ccc32)c2ccc(N3C(=O)CC(*)C3=O)cc21; εLys = N[C@@H](CCCCN[*:1])C(=O)[*:2]

Experiments:
[1] = test system: amyloid plaques in brain sections; assay: Staining of brain tissue sections of APPsw+/− and WT mice; design: species or system mouse; settings: 40 μm sections
Source text: Staining experiments with cross sections of brain tissue from normal (WT) and APPsw+/− mice are suitable for evaluating target specificity of the peptide conjugate. For example, a candidate peptide conjugate is labeled with a fluorescent marker. A suitable marker is fluorescein-5-maleimide (FM; 3-equiv) in DMF, which labels the C-terminal thiol of the peptide. After a suitable reaction of peptide and FM at room temperature in the dark, the fluorescent-labeled peptide is purified, for example column-purified, requisite fraction eluted, combined, lyophilized and characterized through electron spray mass spectrometry. For tissue staining of brain sections of APPsw+/− mice (test) and WT mice (control), immunohistochemical staining of Aβ and for FM-peptide staining are performed according to published procedures (DeMattos et al., 2002; Holtzman et al., 2000). Rabbit-anti-pan Aβ antibody is used, for example, as a control, and visualized with anti-rabbit antibody conjugated with a fluorescent marker such as Alexa 568 (Molecular Probes). Staining of brain sections from normal and APPsw+/− mice are compared. Target specificity of the peptide is indicated by immunostaining of Aβ in APPsw+/− mice and no staining in WT mice.
Staining experiments with cross sections of brain tissue were also performed. […]

[2] = Acute toxicity in mice after intravenous bolus injection; type: in vivo; settings: Balb/C male mice, intravenous bolus 14 mg/kg, up to several days post-injection
Experimental: Although absolute concentration of radiotracers in vivo is normally too low to cause any host toxicity, nevertheless host safety is a key determinant for any successful diagnostic agent. Therefore, using a Re-labeled peptide as a surrogate for a Tc-labeled peptide, acute toxicity in mice (Balb/C; male; 6-8wks old) was determined.

[3] = target: T1, preformed Aβ 1-40 aggregates (Homo sapiens, UniProt P05067); assay: Competitive binding of ^99mTc-peptide to preformed Aβ 1-40 aggregates with unlabeled competitor; settings: 1,000-fold molar excess of competitor
T1 construct: preformed Aβ 1-40 aggregates; purchased
Experimental: Binding assays are performed to determine the binding specificity of the peptide conjugate. For example, a preliminary radioassay of Aβ-binding is performed. For example, a conjugate consisting of radiolabeled ^99mTc-peptide conjugate is incubated with Aβ fibrils in PBS for about 1-3 hours. Bound ^99mTc-peptide conjugate is separated on a Centricon filter unit (with, for example a 100 KDa cut off) and washed several times with PBS buffer. Saturable binding is indicated by calculation of a Kd (affinity constant) as well known in the art to help evaluate the relative amount of specific binding as opposed to non-specific binding. […] Radiolabeled peptide conjugate that is displaceable to background with either 1,000-fold molar excess of unlabeled peptide conjugate or, for example, cold Re-peptide conjugate, supports receptor-like binding behavior of the peptide conjugate to Aβ fibrils. Binding of the lead ^99mTc-peptide to preformed Aβ 1-40 aggregates in presence of increasing equivalents of unlabeled competing peptide. The aggregate-bound ^99mTc-peptide was isolated from free labeled peptide by centrifugation using Centricon (100 kDa cutoff) filters. The concentration of aggregate bound ^99mTc-peptide was calculated on the basis of activity retained on the filters (FIG. 5). […] Each data point represents a mean of triplicate measurements.

RBE4 cell monolayers [4] = test system: RBE4 cell monolayers
[5] = target: T2, Aβ 1-40 aggregates (Aβ fibrils) (Homo sapiens, UniProt P05067); assay: Binding assay of ^99mTc-peptide with Aβ fibrils (Centricon filter separation); settings: PBS, RT, 90 min, mean of triplicate; read-out: Kd (saturable binding to Aβ fibrils)
T2 construct: preformed Aβ 1-40 aggregates; purchased
Experimental: Binding assays are performed to determine the binding specificity of the peptide conjugate. For example, a preliminary radioassay of Aβ-binding is performed. For example, a conjugate consisting of radiolabeled ^99mTc-peptide conjugate is incubated with Aβ fibrils in PBS for about 1-3 hours. Bound ^99mTc-peptide conjugate is separated on a Centricon filter unit (with, for example a 100 KDa cut off) and washed several times with PBS buffer. Saturable binding is indicated by calculation of a Kd (affinity constant) as well known in the art to help evaluate the relative amount of specific binding as opposed to non-specific binding. […]
Binding assays of ^99mTc-peptide with Aβ fibrils were performed in PBS. […] The concentration of aggregate-bound ^99mTc-peptide was calculated on the basis of activity retained on the filters. […]
Binding assays to preformed fibrils are performed using procedures as described in the literature (Klunk et al., 2001). […] The amount of activity incorporated in the fibrils is measured through γ-counting using previously published procedures (Zhen et al., 1999). […] The mixture is incubated at room temperature for 1.5 h, and the aggregate-bound ^99mTc-peptide and free radioactivity is separated by filtration through Centricon filtration units using a centrifuge. The aggregate-bound ^99mTc-peptide collected on filters is counted in a γ-counter. […]

RBE4 cell monolayers [6] = assay: Transwell transendothelial transport across RBE4 cell monolayers (in vitro BBB model); settings: apical to basolateral and basolateral to apical, up to 120 minutes

amyloid plaques in brain sections, sequence (P05067 672-711 limits assumed): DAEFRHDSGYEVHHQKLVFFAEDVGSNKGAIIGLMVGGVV
T1 sequence (P05067 672-711): as the sequence (P05067 672-711 limits assumed) above
T2 sequence (P05067 672-711): as the sequence (P05067 672-711 limits assumed) above

Aβ-binding peptide coupled with FM: peptide labeled on the C-terminal thiol with fluorescein-5-maleimide (FM) (KKLVFFAKGC(Fluorescein(5-Mal)); not fully specified (residues 7, 8); printed as KKLVFFAεKGC)
staining of Aβ plaques in brain sections of APPsw+/− mice ([1]; APPsw+/− mouse, 17 months old, FM-peptide 2 μM solution): staining of plaques in the cortical region | staining in brain sections of WT mice ([1]; control WT mouse (Bl/6; 13.5 months old)): no staining

Re-peptide: rhenium complex of peptide KKLVFFAεKGC, surrogate for the Tc-labeled peptide (KKLVFFA[εLys]GC; not fully specified (residue 7); printed as KKLVFFAεKGC; also: rhenium complex (peptide-based chelation core))
acute toxicity [2]: nontoxic | displacement of aggregate-bound ^99mTc-peptide by competitor [3]: displaceable to background conditions

^3H-Aβ1-40 peptide: full length tritiated Aβ1-40 peptide (SEQ. ID. NO.: 2)
transwell transport / permeation across RBE4 cells (RBE4 cell monolayers [4]): did not show any transwell transport

^99mTc-peptide: peptide KKLVFFAεKGC (SEQ. ID. NO.: 1) radiolabeled with technetium-99m in its peptide-based chelation core (KKLVFFAKGC; not fully specified; conjugate chemistry not built)
Kd [5]: 352 ± 82 nM

inulin [^14C-inulin]
transwell transport / permeation across RBE4 cells (RBE4 cell monolayers [6]): low transwell transport
